Tests used:
Experiment in all cases: ITC
Conditions in all cases: both partners purified
[1] = molecular target: hisMBP-TRIM7-CC-PRYSPRY (human, UniProt Q9C029 165-511)
[2] = molecular target: T1, mouse TRIM7-PRYSPRY (mouse, UniProt Q923T7 342-510)
T1 construct: vector pOPTH; also called mTRIM7; mTrim7-PRYPSRY

[3] = molecular target: T2, human hisTRIM7-PRYSPRY (human, UniProt Q9C029 342-511)
T2 construct: vector pOPTH; also called hTRIM7-PRYSPRY; hTRIM7

Binder | binding result [2] | also measured
hexahistidine-tagged full-length human GYG1, GN1 isoform (natural protein, also called hsGYG1-GN1; hGYG1-GN1) MTDQAFVTLTTNDAYAKGALVLGSSLKQHRTTRRLVVLATPQVSDSMRKVLETVFDEVIMVDVLDSGDSAHLTLMKRPELGVTLTKLHCWSLTQYSKCVFMDADTLVLANIDDLFDREELSAAPDPGWPDCFNSGVFVYQPSVETYNQLLHLASEQGSFDGGDQGILNTFFSSWATTDIRKHLPFIYNLSSISIYSYLPAFKVFGASAKVVHFLGRVKPWNYTYDPKTKSVKSEAHDPNMTHPEFLILWWNIFTTNVLPLLQQFGLVKDTCSYVNVEDVSGAISHLSLGEIPAMAQPFVSSEERKERWEQGQADYMGADSFDNIKRKLDTYLQ |  | stoichiometry N [1]: 1
mouse glycogenin-1, full length (natural protein, also called mGYG1; mGYG) MTDQAFVTLTTNDAYAKGALVLGSSLKQHRTTRRMVVLTSPQVSDSMRKVLETVFDDVIMVDVLDSGDSAHLTLMKRPELGITLTKLHCWSLTQYSKCVFMDADTLVLSNIDDLFEREELSAAPDPGWPDCFNSGVFVYQPSIETYNQLLHLASEQGSFDGGDQGLLNTYFSGWATTDITKHLPFVYNLSSISIYSYLPAFKAFGKNAKVVHFLGRTKPWNYTYNPQTKSVNCDSQDPTVSHPEFLNLWWDTFTTNVLPLLQHHGLVKDASSYLMMEHVSGALSDLSFGEAPAAPQPSMSSEERKERWEQGQADYMGADSFDNIKRKLDTYLQ | binds | 
rabbit glycogenin-1, full length (natural protein, vector pOPTH; also called rbGYG1; full-length rbGYG1) MTDQAFVTLTTNDAYAKGALVLGSSLKQHRTSRRLAVLTTPQVSDTMRKALEIVFDEVITVDILDSGDSAHLTLMKRPELGVTLTKLHCWSLTQYSKCVFMDADTLVLANIDDLFEREELSAAPDPGWPDCFNSGVFVYQPSVETYNQLLHVASEQGSFDGGDQGLLNTFFNSWATTDIRKHLPFIYNLSSISIYSYLPAFKAFGANAKVVHFLGQTKPWNYTYDTKTKSVRSEGHDPTMTHPQFLNVWWDIFTTSVVPLLQQFGLVQDTCSYQHVEDVSGAVSHLSLGETPATTQPFVSSEERKERWEQGQADYMGADSFDNIKKKLDTYLQ | binds | 
AAAAALQ |  | Kd [3]: 8 µM

Source: publication PMC9394474 (Viruses, 2022)
